From US20250032543A1 (CHILDREN S HOSPITAL OF PHILADELPHIA, published 2025)

Target: T1, recombinant human (rh) CD16A protein conjugated with APC fluorophore (human, UniProt P08637 17-208, APC fluorophore conjugate)
T1 construct: also called APC-tagged rhCD16A
Test: 'sandwich' flow cytometry: NB-EBC1 cells incubated with cSN, then stained with APC-conjugated rhCD16A
Experimental: FIGS. 3A-E. Production and binding characterization of BICEs. (FIG. 3A) Flow cytometry histograms showing His-tag cell surface expression in neuroblastoma cells incubated with concentrated supernatants (cSNs) from CAR constructs (CAR.GPC2, CAR.GPC2-BiCE.GD2 or CAR.GPC2-BICE.CD19) or 1×PBS and then stained with phycoerythrin (PE)-tagged anti-His-tag antibody. Neuroblastoma cells with high (NB-EBC1 and SMS-SAN) and low (SY5Y) GD2 expression were selected. Leukemia (NALM6) cells with high CD19 were utilized as controls. (FIG. 3B) Concentration-dependent binding of CAR.GPC2-BICE.GD2 cSN in GD2-high NB-EBC1 cells. (FIG. 3C) Binding competition assay between FDA-approved anti-GD2 antibody dinutuximab and CAR.GPC2-BiCE.GD2 cSNs. (FIG. 3D) Graphical scheme of the “sandwich” binding assays where GD2-expressing neuroblastoma cells were incubated with bicistronic vector cSNs and then stained with recombinant human (rh) CD16A protein previously conjugated with APC fluorophore. (FIG. 3E) Flow cytometry histograms showing CD16A sdAb APC staining in GD2-positive cells incubated with GPC2.CAR-GD2.BiCE cSN but not with control vector cSN (GPC2.CAR-CD19.BiCE).
Next, to study whether BiCEs might produce a molecular synapsis between GD2-expressing cells and CD16a, a “sandwich” binding assay was developed as illustrated in FIG. 3D. […]

T1 sequence (P08637 17-208 limits assumed): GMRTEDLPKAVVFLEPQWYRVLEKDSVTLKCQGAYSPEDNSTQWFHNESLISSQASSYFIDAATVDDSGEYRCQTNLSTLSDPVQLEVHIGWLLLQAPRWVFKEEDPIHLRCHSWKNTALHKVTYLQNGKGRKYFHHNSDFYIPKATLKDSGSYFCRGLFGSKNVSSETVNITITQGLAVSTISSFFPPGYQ

B1: GD2-targeted bispecific innate immune cell engager (GD2 scFv 14g2a linked to CD16A single-domain antibody sdA1, His-tagged) (bispecific antibody)
chain: DILLTQTPLSLPVSLGDQASISCRSSQSLVHRNGNTYLHWYLQKPGQSPKLLIHKVSNRFSGVPDRFSGSGSGTDFTLKISRVEAEDLGVYFCSQSTHVPPLTFGAGTKLELKGSTSGSGKPGSGEGSTKGEVKLQQSGPSLVEPGASVMISCKASGSSFTGYNMNWVRQNIGKSLEWIGAIDPYYGGTSYNQKFKGRATLTVDKSSSTAYMHLKSLTSEDSAVYYCVSGMEYWGQGTSVTVSSGSTSGSGKPGSGEGSTKGEVQLVESGGGLVQPGGSLRLSCAASGFTFSNYGMSWVRQAPGKGLEWIGSIYYSGSTNYNPSLKSLVTISRDNSKNTLYLQMNSLRAEDTATYYCARESIDYWGQGTLVTVSSHHHHHH
notes: Used as concentrated supernatant (cSN) of HEK 293T cells transfected with the bicistronic GPC2.CAR-GD2.BiCE vector; also called GD2 BiCE; GD2.BiCE
binding result: binds
